The values below are quoted from earlier work in patent US20230192878A1, “METHODS, THERAPIES AND USES FOR TREATING CANCER” (PFIZER INC., priority 2020, published 2023).

In this data set the target is T1, BCMA (Homo sapiens, UniProt Q02223).
T1 sequence (Q02223 1-184): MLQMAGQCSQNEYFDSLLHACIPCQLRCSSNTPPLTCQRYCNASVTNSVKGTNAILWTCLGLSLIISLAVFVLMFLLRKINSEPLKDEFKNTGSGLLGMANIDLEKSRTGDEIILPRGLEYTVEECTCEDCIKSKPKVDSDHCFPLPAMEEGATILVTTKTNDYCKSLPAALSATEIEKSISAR
Particulars: binding to BCMA; read-out: affinity; cited from earlier work.

With “APRIL: a proliferation-inducing ligand, ligand of BCMA”, the Kd is 16 nM.
In the case of “BAFF: B-cell activation factor, ligand of BCMA”, the Kd is 1000 nM.
